This note sets out measurements from patent publication US20210324063A1 (KODIAK SCIENCES, published 2021).

Assay [1] concerns the target T1, Purified human C1q (human, UniProt P02745 23-245; P02746 28-253; P02747 29-245).
T1 construct: also called human complement protein C1q
As to the kind of experiment: ELISA: antibody coated on the plate in 1:2 titration, purified human C1q at 5 ug/mL, HRP anti-human C1q detection. The method, then: Complement engagement liabilities were assessed by C1q ELISA binding. The antibody panel was titrated 1:2 from a top concentration of 10 ug/mL in 1×PBS for overnight coating at 4 C. Plates were then blocked After a 2 hour blocking step in 1% BSA. Purified human C1q was then applied at 5 ug/mL in 1% BSA for 2 hours at room temperature followed by detection with HRP-conjugated anti-human C1q antibody and TMB development.
On the technique in general: ELISA stands for enzyme-linked immunosorbent assay.

Assay [2] addresses T2, Histidine-tagged FcγRI (UniProt P12314 16-288, limits assumed).
T2 construct: also called Fc gamma receptor I; not shown: histidine tag
As to the kind of experiment: SPR (BIAcore T200), his-tagged receptor captured by anti-his antibody on a CM5 chip, antibody as analyte, single-cycle kinetics, 25 C. The method, then:
(§1) Binding kinetics experiments were performed at 25° C. using a BIAcore T200. An anti-his antibody was immobilized on a CM5 chip. Histidine-tagged FcγRI and FcγRIIIa at a concentration of 0.5 μg/mL prepared in HBS-EP buffer (0.01M HEPES pH7.4, 0.15M NaCl, 3 mM EDTA, 0.005% Tween-20) were injected independently for 60-s using a flow rate of 5 μL/min in the active flow cell only. […] Antibody concentrations in the range of 0.48 to 300 nM were used for FcγRI and 7.8 nM to 2000 nM for FcγRIIIa. Following each run, flow cells were regenerated with a 60 s injection of 10 mM glycine pH 1.7 using a flow-rate of […]. Data was double referenced, using subtraction of both reference flow cell and blank cycles. Analysis was performed using BIA evaluation software.
A general note: Surface plasmon resonance follows binding to a sensor surface in real time, without labels.

The target in assay [3] is T3, Histidine-tagged FcγRIIIa (UniProt P08637 17-208, limits assumed).
T3 construct: also called Fc gamma receptor IIIa; not shown: histidine tag
T3 sequence (P08637 17-208 limits assumed): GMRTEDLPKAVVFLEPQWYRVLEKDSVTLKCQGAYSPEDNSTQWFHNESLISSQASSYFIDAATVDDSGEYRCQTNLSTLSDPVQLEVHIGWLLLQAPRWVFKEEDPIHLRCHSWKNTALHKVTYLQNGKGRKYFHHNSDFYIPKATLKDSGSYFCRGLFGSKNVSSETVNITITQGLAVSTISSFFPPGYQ
The assay is described as above. The method, then: as §1

T1 sequence (P02745 23-245 limits assumed, chain 1 of 3): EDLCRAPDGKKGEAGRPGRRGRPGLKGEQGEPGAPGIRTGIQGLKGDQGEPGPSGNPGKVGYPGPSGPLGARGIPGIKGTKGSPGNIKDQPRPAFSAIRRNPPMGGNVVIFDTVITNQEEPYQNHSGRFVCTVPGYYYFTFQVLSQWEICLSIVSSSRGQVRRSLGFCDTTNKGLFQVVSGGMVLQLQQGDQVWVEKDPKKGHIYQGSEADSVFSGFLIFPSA
T1 sequence (P02746 28-253 limits assumed, chain 2 of 3): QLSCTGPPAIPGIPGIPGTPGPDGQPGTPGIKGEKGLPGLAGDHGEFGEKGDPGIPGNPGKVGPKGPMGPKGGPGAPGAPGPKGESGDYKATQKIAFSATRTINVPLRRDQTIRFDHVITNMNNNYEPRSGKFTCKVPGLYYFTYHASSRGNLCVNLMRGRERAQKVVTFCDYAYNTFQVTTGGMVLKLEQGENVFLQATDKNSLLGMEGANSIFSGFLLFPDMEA
T1 sequence (P02747 29-245 limits assumed, chain 3 of 3): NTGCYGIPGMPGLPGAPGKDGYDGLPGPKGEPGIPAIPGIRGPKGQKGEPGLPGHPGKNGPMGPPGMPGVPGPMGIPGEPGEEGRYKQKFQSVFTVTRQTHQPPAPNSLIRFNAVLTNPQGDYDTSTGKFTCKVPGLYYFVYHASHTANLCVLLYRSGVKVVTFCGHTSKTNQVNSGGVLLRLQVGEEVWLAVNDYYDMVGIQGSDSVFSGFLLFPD
T2 sequence (P12314 16-288 limits assumed): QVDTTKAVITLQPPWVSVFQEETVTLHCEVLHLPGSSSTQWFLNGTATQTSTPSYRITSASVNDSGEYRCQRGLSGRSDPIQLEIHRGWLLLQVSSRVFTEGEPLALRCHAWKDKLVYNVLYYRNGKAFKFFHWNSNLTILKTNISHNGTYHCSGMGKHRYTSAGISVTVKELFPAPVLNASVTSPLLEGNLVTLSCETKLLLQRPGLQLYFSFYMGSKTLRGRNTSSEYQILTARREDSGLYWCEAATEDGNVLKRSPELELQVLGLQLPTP

B1: OG1950 (antibody, IgG1)
heavy: EVQLVESGGGLVQPGGSLRLSCAASGYDFTHYGMNWVRQAPGKGLEWVGWINTYTGEPTYAADFKRRFTFSLDTSKSTAYLQMNSLRAEDTAVYYCAKYPYYYGTSHWYFDVWGQGTLVTVSSASTKGPSVFPLAPSSKSTSGGTAALGCLVKDYFPEPVTVSWNSGALTSGVHTFPAVLQSSGLYSLSSVVTVPSSSLGTQTYICNVNHKPSNTKVDKKVEPKSCDKTHTCPPCPAPEAAGAPSVFLFPPKPKDTLMISRTPEVTCVVVDVSHEDPEVKFNWYVDGVEVHNAKTKPREEQYNSTYRVVSVLTVLHQDWLNGKEYKCKVSNKALPAPIEKTISKAKGQPREPQVYTLPPSREEMTKNQVSLTCLVKGFYPSDIAVEWESNGQPENNYKTTPPVLDSDGSFFLYSKLTVDKSRWQQGNVFSCSVMHEALHNHYTQKSLSCSPGK
light: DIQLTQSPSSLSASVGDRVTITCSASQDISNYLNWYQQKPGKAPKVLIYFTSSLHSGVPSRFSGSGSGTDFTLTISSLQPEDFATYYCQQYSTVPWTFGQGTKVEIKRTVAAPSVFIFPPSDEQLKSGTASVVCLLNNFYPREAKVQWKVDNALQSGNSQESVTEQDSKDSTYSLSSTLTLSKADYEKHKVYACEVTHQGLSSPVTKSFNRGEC
notes: also called anti-VEGF-A antibody with an L443C (EU numbering) mutation; unconjugated antibody
Regarding B1, the binding result in assay [1] is given as “binds”; in assay [2] it was “no binding (tested: 0.48 to 300 nM)”; in assay [3], “no binding (tested: 7.8 nM to 2000 nM)”.

B2: Avastin (bevacizumab) (antibody, human IgG1, kappa)
heavy: not shown
light: not shown
notes: Commercial product
As to B2, the binding result in assay [1] was “binds”.
